Key:
[1] = molecular target: the molecule itself; test: native gel or EMSA
[2] = molecular target: the molecule itself; test: spinning disk fluorescence microscopy of septin polymerisation
[3] = molecular target: the molecule itself; test: negative-stain electron microscopy of septin polymerisation

Protein	binding result [1]	binding result [2]	binding result [3]
human SEPT9_i1 with a TEV-cleavable C-terminal Strep-tag-II (natural protein) MKKSYSGGTRTSSGRLRRLGDSSGPALKRSFEVEEVETPNSTPPRRVQTPLLRATVASSTQKFQDLGVKNSEPSARHVDSLSQRSPKASLRRVELSGPKAAEPVSRRTELSIDISSKQVENAGAIGPSRFGLKRAEVLGHKTPEPAPRRTEITIVKPQESAHRRMEPPASKVPEVPTAPATDAAPKRVEIQMPKPAEAPTAPSPAQTLENSEPAPVSQLQSRLEPKPQPPVAEATPRSQEATEAAPSCVGDMADTPRDAGLKQAPASRNEKAPVDFGYVGIDSILEQMRRKAMKQGFEFNIMVVGQSGLGKSTLINTLFKSKISRKSVQPTSEERIPKTIEIKSITHDIEEKGVRMKLTVIDTPGFGDHINNENCWQPIMKFINDQYEKYLQEEVNINRKKRIPDTRVHCCLYFIPATGHSLRPLDIEFMKRLSKVVNIVPVIAKADTLTLEERVHFKQRITADLLSNGIDVYPQKEFDEDSEDRLVNEKFREMIPFAVVGSDHEYQVNGKRILGRKTKWGTIEVENTTHCEFAYLRDLLIRTHMQNIKDITSSIHFEAYRVKRLNEGSSAMANGVEEKEPEAPEM	binds		
human SEPT9_i3 with a TEV-cleavable C-terminal Strep-tag-II (natural protein) MERDRISALKRSFEVEEVETPNSTPPRRVQTPLLRATVASSTQKFQDLGVKNSEPSARHVDSLSQRSPKASLRRVELSGPKAAEPVSRRTELSIDISSKQVENAGAIGPSRFGLKRAEVLGHKTPEPAPRRTEITIVKPQESAHRRMEPPASKVPEVPTAPATDAAPKRVEIQMPKPAEAPTAPSPAQTLENSEPAPVSQLQSRLEPKPQPPVAEATPRSQEATEAAPSCVGDMADTPRDAGLKQAPASRNEKAPVDFGYVGIDSILEQMRRKAMKQGFEFNIMVVGQSGLGKSTLINTLFKSKISRKSVQPTSEERIPKTIEIKSITHDIEEKGVRMKLTVIDTPGFGDHINNENCWQPIMKFINDQYEKYLQEEVNINRKKRIPDTRVHCCLYFIPATGHSLRPLDIEFMKRLSKVVNIVPVIAKADTLTLEERVHFKQRITADLLSNGIDVYPQKEFDEDSEDRLVNEKFREMIPFAVVGSDHEYQVNGKRILGRKTKWGTIEVENTTHCEFAYLRDLLIRTHMQNIKDITSSIHFEAYRVKRLNEGSSAMANGVEEKEPEAPEM	binds		
SEPT2-msfGFP human septin octamers containing SEPT9_i1 (complex) chain 1: MSKQQPTQFINPETPGYVGFANLPNQVHRKSVKKGFEFTLMVVGESGLGKSTLINSLFLTDLYPERVIPGAAEKIERTVQIEASTVEIEERGVKLRLTVVDTPGYGDAINCRDCFKTIISYIDEQFERYLHDESGLNRRHIIDNRVHCCFYFISPFGHGLKPLDVAFMKAIHNKVNIVPVIAKADTLTLKERERLKKRILDEIEEHNIKIYHLPDAESDEDEDFKEQTRLLKASIPFSVVGSNQLIEAKGKKVRGRLYPWGVVEVENPEHNDFLKLRTMLITHMQDLQEVTQDLHYENFRSERLKRGGRKVENEDMNKDQILLEKEAELRRMQEMIARMQAQMQMQMQGGDGDGGALGHHV chain 2: MAATDIARQVGEGCRTVPLAGHVGFDSLPDQLVNKSVSQGFCFNILCVGETGLGKSTLMDTLFNTKFEGEPATHTQPGVQLQSNTYDLQESNVRLKLTIVSTVGFGDQINKEDSYKPIVEFIDAQFEAYLQEELKIRRVLHTYHDSRIHVCLYFIAPTGHSLKSLDLVTMKKLDSKVNIIPIIAKADAISKSELTKFKIKITSELVSNGVQIYQFPTDDESVAEINGTMNAHLPFAVIGSTEELKIGNKMMRARQYPWGTVQVENEAHCDFVKLREMLIRVNMEDLREQTHTRHYELYRRCKLEEMGFKDTDPDSKPFSLQETYEAKRNEFLGELQKKEEEMRQMFVQRVKEKEAELKEAEKELHEKFDRLKKLHQDEKKKLEDKKKSLDDEVNAFKQRKTAAELLQSQGSQAGGSQTLKRDKEKKN chain 3: MSVSARSAAAEERSVNSSTMVAQQKNLEGYVGFANLPNQVYRKSVKRGFEFTLMVVGESGLGKSTLINSLFLTDLYSPEYPGPSHRIKKTVQVEQSKVLIKEGGVQLLLTIVDTPGFGDAVDNSNCWQPVIDYIDSKFEDYLNAESRVNRRQMPDNRVQCCLYFIAPSGHGLKPLDIEFMKRLHEKVNIIPLIAKADTLTPEECQQFKKQIMKEIQEHKIKIYEFPETDDEEENKLVKKIKDRLPLAVVGSNTIIEVNGKRVRGRQYPWGVAEVENGEHCDFTILRNMLIRTHMQDLKDVTNNVHYENYRSRKLAAVTYNGVDNNKNKGQLTKSPLAQMEEERREHVAKMKKMEMEMEQVFEMKVKEKVQKLKDSEAELQRRHEQMKKNLEAQHKELEEKRRQFEDEKANWEAQQRILEQQNSSRTLEKNKKKGKIF chain 4: MKKSYSGGTRTSSGRLRRLGDSSGPALKRSFEVEEVETPNSTPPRRVQTPLLRATVASSTQKFQDLGVKNSEPSARHVDSLSQRSPKASLRRVELSGPKAAEPVSRRTELSIDISSKQVENAGAIGPSRFGLKRAEVLGHKTPEPAPRRTEITIVKPQESAHRRMEPPASKVPEVPTAPATDAAPKRVEIQMPKPAEAPTAPSPAQTLENSEPAPVSQLQSRLEPKPQPPVAEATPRSQEATEAAPSCVGDMADTPRDAGLKQAPASRNEKAPVDFGYVGIDSILEQMRRKAMKQGFEFNIMVVGQSGLGKSTLINTLFKSKISRKSVQPTSEERIPKTIEIKSITHDIEEKGVRMKLTVIDTPGFGDHINNENCWQPIMKFINDQYEKYLQEEVNINRKKRIPDTRVHCCLYFIPATGHSLRPLDIEFMKRLSKVVNIVPVIAKADTLTLEERVHFKQRITADLLSNGIDVYPQKEFDEDSEDRLVNEKFREMIPFAVVGSDHEYQVNGKRILGRKTKWGTIEVENTTHCEFAYLRDLLIRTHMQNIKDITSSIHFEAYRVKRLNEGSSAMANGVEEKEPEAPEM		binds	binds
SEPT2-msfGFP human septin hexamers (complex) chain 1: MSKQQPTQFINPETPGYVGFANLPNQVHRKSVKKGFEFTLMVVGESGLGKSTLINSLFLTDLYPERVIPGAAEKIERTVQIEASTVEIEERGVKLRLTVVDTPGYGDAINCRDCFKTIISYIDEQFERYLHDESGLNRRHIIDNRVHCCFYFISPFGHGLKPLDVAFMKAIHNKVNIVPVIAKADTLTLKERERLKKRILDEIEEHNIKIYHLPDAESDEDEDFKEQTRLLKASIPFSVVGSNQLIEAKGKKVRGRLYPWGVVEVENPEHNDFLKLRTMLITHMQDLQEVTQDLHYENFRSERLKRGGRKVENEDMNKDQILLEKEAELRRMQEMIARMQAQMQMQMQGGDGDGGALGHHV chain 2: MAATDIARQVGEGCRTVPLAGHVGFDSLPDQLVNKSVSQGFCFNILCVGETGLGKSTLMDTLFNTKFEGEPATHTQPGVQLQSNTYDLQESNVRLKLTIVSTVGFGDQINKEDSYKPIVEFIDAQFEAYLQEELKIRRVLHTYHDSRIHVCLYFIAPTGHSLKSLDLVTMKKLDSKVNIIPIIAKADAISKSELTKFKIKITSELVSNGVQIYQFPTDDESVAEINGTMNAHLPFAVIGSTEELKIGNKMMRARQYPWGTVQVENEAHCDFVKLREMLIRVNMEDLREQTHTRHYELYRRCKLEEMGFKDTDPDSKPFSLQETYEAKRNEFLGELQKKEEEMRQMFVQRVKEKEAELKEAEKELHEKFDRLKKLHQDEKKKLEDKKKSLDDEVNAFKQRKTAAELLQSQGSQAGGSQTLKRDKEKKN chain 3: MSVSARSAAAEERSVNSSTMVAQQKNLEGYVGFANLPNQVYRKSVKRGFEFTLMVVGESGLGKSTLINSLFLTDLYSPEYPGPSHRIKKTVQVEQSKVLIKEGGVQLLLTIVDTPGFGDAVDNSNCWQPVIDYIDSKFEDYLNAESRVNRRQMPDNRVQCCLYFIAPSGHGLKPLDIEFMKRLHEKVNIIPLIAKADTLTPEECQQFKKQIMKEIQEHKIKIYEFPETDDEEENKLVKKIKDRLPLAVVGSNTIIEVNGKRVRGRQYPWGVAEVENGEHCDFTILRNMLIRTHMQDLKDVTNNVHYENYRSRKLAAVTYNGVDNNKNKGQLTKSPLAQMEEERREHVAKMKKMEMEMEQVFEMKVKEKVQKLKDSEAELQRRHEQMKKNLEAQHKELEEKRRQFEDEKANWEAQQRILEQQNSSRTLEKNKKKGKIF		binds	binds
recombinant Drosophila septin hexamers (DSep1-msfGFP, DSep2, Peanut) (complex) chain 1: MADTKGFSSIETPGYVGFANLPNQVHRKSVKKGFEFTLMVVGESGLGKSTLVNSLFLTDLYPERIIPDAIEKQKQTVKLEASTVEIEERGVKLRLTVVDTPGFGDAIDNSNSFGAILEYIDEQYERFLRDESGLNRRNIVDNRIHCCFYFISPFGHGLKPLDVEFMKKLHSKVNIVPVIAKADCLTKKEILRLKCRIMQEIESHGIKIYPLPDCDSDEDEDYKEQVKQLKEAVPFAVCGANTLLEVKGKKVRGRLYPWGVVEVENPDHCDFIKLRTMLITHMQDLQEVTQEVHYENYRSDRLAKGIKGKENGVKAERDSSSQVVSNSVLGEKDRILQEKEAELRRMQEMLAQMQARMQAQQ chain 2: MSVEVDFVDKKEVHLRTLKQSGHVGFDSLPDQLVNKSVQNGFVFNVMCIGETGLGKSTLMDTLFNTSFESTPSPHTLPSVKLKAHTYELQESNVRLKLTICDTVGYGDQINKDDSFKAVVDYIDAQFENYLQEELKIKRSLVTCHDSRIHICLYFICPTGHGLKSLDLVCMKKLDSKVNIIPVIAKADTISKVELQRFKAKIIQELNANGVHIYQFPTDDETVAETNTSMNSHIPFAVVGSTEFIKVGNKLIRARQYPWGTVQVENETHCDFVKLREMLIRTNMEDMREKTHTRHYELYRQKRLEQMGFSDVDSDNKPISFQQTFEAKRSNHLAELQSKEEEVRQMFVQRVKEKEAELKESEKDLHAKFEKLKRDHAEEKRKLEESRKALEEDYLDFQRRKQQLATAHHTLTLGKSKKK chain 3: MNSPRSNAVNGGSGGAISALPSTLAQLALRDKQQAASASASSATNGSSGSESLVGVGGRPPNQPPSVPVAASGKLDTSGGGASNGDSNKLTHDLQEKEHQQAQKPQKPPLPVRQKPMEIAGYVGFANLPNQVYRKAVKRGFEFTLMVVGASGLGKSTLINSMFLSDIYNAEQYPGPSLRKKKTVAVEATKVMLKENGVNLTLTVVDTPGFGDAVDNSNCWVPILEYVDSKYEEYLTAESRVYRKTISDSRVHCCLYFIAPSGHGLLPLDIACMQSLSDKVNLVPVIAKADTMTPDEVHLFKKQILNEIAQHKIKIYDFPATLEDAAEEAKTTQNLRSRVPFAVVGANTIIEQDGKKVRGRRYPWGLVEVENLTHCDFIALRNMVIRTHLQDLKDVTNNVHYENYRCRKLSELGLVDGKARLSNKNPLTQMEEEKREHEQKMKKMEAEMEQVFDMKVKEKMQKLRDSELELARRHEERKKALELQIRELEEKRREFEREKKEWEDVNHVTLEELKRRSLGANSSTDNVDGKKEKKKKGLF		binds	

— article doi:10.1101/2021.01.21.427698 (bioRxiv, 2021)
